Laboratory results as given in US7951562B2, “Method for glycosylating hydroxylysine residues in polypeptides or peptides” (Oulun Yliopisto, priority 2000, dated 2011).

Assays:
Assay type in all cases: biochemical
[1] = system: galactosylhydroxylysyl residues in calf skin gelatin substrate; assay: GGT (glucosyltransferase) activity of recombinant proteins expressed in Sf9 insect cells; conditions: for GGT activity in cell lysates: Sf9 cells, 72 hours after infection; for GGT activity, Dpm/plate: Sf9 cells transfected by LH3 constructs; for GGT activity, %: relative to nonmutated LH3 construct
Text: The glucosyltransferase activity can be assayed as described in Myllylä et al. (1975). The method is based on the transfer of radioactively (tritium) labelled glucose from UDP-glucose to galactosylhydroxylysyl residues in calf skin gelatin substrate and on the specific assay of the product of the enzyme reaction after alkaline hydrolysis.
(§1) Commercially available baculovirus transfer vector pFastBacI in the BAC-TO-BAC™ expression system (Life technologies, Inc.) was modified to contain human LH1 signal peptide (Hautala et al., 1992) and His6 tag, and BamHI restriction site for insertion of the desired cDNA, nucleotides 289-2455 of LH3 cDNA (SEQ ID NO 6) (Valtavaara et al., 1998). The construct was confirmed by sequencing. The recombinant protein contains His tag at the amino-terminus after signal peptide cleavage. Insect cells were harvested 0-72 hours after infection and homogenized according to the protocol described earlier (Valtavaara et al., 1997).
Human LH1 signal peptide and His6 tag was inserted to the cDNA constructs of LH1 and LH2. The baculovirus transfer vector pFastBacI was modified so that human LH1 signal sequence followed by nine nucleotides of the amino-terminal end was ligated to the His6 tag followed by nucleotides for BamHI restriction site. The human cDNA sequence (LH1 or LH2) (SEQ ID NO 21, 23 and 25) starting from the likely amino-terminal end of the molecule was ligated to the BamHI site of the construct. Two expression constructs were generated for LH2, LH2a and LH2b (SEQ ID NO 23 and 25), both of them covered the nucleotides from 76 to 2267 (Valtavaara et al., 1997). The LH2b construct contained also the alternatively spliced exon sequence (Valtavaara 1999; Yeowell and Walker, 1999) between nucleotides 1500 and 1501 (SEQ ID NO 25). The constructs were confirmed by sequencing. Insect cells were grown and homogenized as described above.
(§2) LH activity was assayed by a method based on the hydroxylation-coupled decarboxylation of 2-oxo(1-^14C)glutarate (Kivirikko and Myllylä 1982), synthetic peptide […] was used as a substrate. GGT activity was assayed as described elsewhere (Myllylä et al. 1975). The method is based on the transfer of radioactively (tritium) labelled glucose from UDP-glucose to galactosylhydroxylysyl residues in calf skin gelatin substrate and on the specific assay of the product of the enzyme reaction after alkaline hydrolysis.

[2] = system: hydroxylysyl residues in a calf skin gelatin substrate; assay: GT (galactosyltransferase) activity of recombinant proteins expressed in E. coli; conditions: E. coli cell supernatant, FIG. 12
Text: The galactosyltransferase activity can be assayed as described in Myllylä et al. (1975). The method is based on the transfer of radioactively (tritium) labelled galactose from UDP-galactose to hydroxylysyl residues in calf skin gelatin substrate and on the specific assay of the product of the enzyme reaction after alkaline hydrolysis.

[3] = system: synthetic peptide IKGIKGIKG; assay: LH activity of human LH isoforms expressed in E. coli; conditions: E. coli expression system, data not shown
Text: (§3) The lysyl hydroxylase activity can be assayed by a method based on the hydroxylation-coupled decarboxylation of 2-oxo(1-^14C)glutarate (Kivirikko and Myllylä 1982), synthetic peptide […] was used as a substrate.
PFastBacI constructs for human LH1, LH2a, LH2b and LH3 were cleaved with BamHI and Hind III restriction enzymes and coding regions were subcloned into same site in E. coli expression vector pQE30 containing (His)6 tag at the amino terminus. Insert for C. elegans LH (corresponding to amino acids 14-730 in cDNA) was generated by PCR and ligated into SacI-PstI site of pOE30 vector. Constructs were transformed into E. coli XL1-Blue strain. Cultures were grown to OD600 of 0.6 at 37° C. Protein expression was induced by adding 1 mM IPTG and incubation was proceed at 30° C. for 5 hours. Cells were harvested and stored at −20° C. For activity measurements cell pellet was suspended to lysis buffer (0.4 M NaCl, 0.5% Nonident and 20 mM Tris-HCl pH 7.8, at 20° C.) and incubated in the presence of lysozyme (50 μg/ml), DNAase (10 μg/ml) and RNAase (10 μg g/ml) at room temperature for 30 minutes. Lysis was completed by sonication. Cell debris was pelleted and supernatant was used in the measurements.

[4] = system: hydroxylysyl residues in a calf skin gelatin substrate; assay: GT activity of recombinant proteins expressed with baculovirus vector in Sf9 cells; conditions: baculovirus vector in insect cells, not shown
Procedure: Baculovirus transfer vector pFastBacI in the BAC-TO-BAC™ expression system was used to produce LH3 protein in Sf9 cells. The cDNA construct is in Example 1. The recombinant protein contains the His tag at the amino terminus after signal peptide cleavage. The cells were homogenized as described elsewhere (Valtavaara et al. 1997).
GT and GGT activities were measured by a method based on the transfer of radioactively (tritium)-labeled sugar from UDP-sugar to hydroxylysyl or galactosylhydroxylysyl residues in a calf skin gelatin substrate, respectively (Myllylä et al. 1975). The specific detection of the reaction products was performed after alkaline hydrolysis.

[5] = system: synthetic peptide IKGIKGIKG; assay: LH (lysyl hydroxylase) activity of LH3 constructs expressed in Sf9 cells; conditions: for LH3 activity, Dpm/plate: Sf9 cells transfected by LH3 constructs; for LH3 activity, %: relative to nonmutated LH3 construct
Text: as §3, §1, §2

Molecule	GGT activity in cell lysates [1]	generation of GT activity [2]	LH activity [3]	generation of GT activity [4]	GGT activity, Dpm/plate [1]	GGT activity, % [1]	LH3 activity, Dpm/plate [5]	LH3 activity, % [5]
LH1: recombinant human lysyl hydroxylase isoform 1, His-tagged (protein, listed as Homo sapiens, His6 tag, recombinant human lysyl hydroxylase isoform 1, His-tagged) MRPLLLLALLGWLLLAEAKGDAKPEDNLLVLTVATKETEGFRRFKRSAQFFNYKIQALGLGEDWNVEKGTSAGGGQKVRLLKKALEKHADKEDLVILFTDSYDVLFASGPRELLKKFRQARSQVVFSAEELIYPDRRLETKYPVVSDGKRFLGSGGFIGYAPNLSKLVAEWEGQDSDSDQLFYTKIFLDPEKREQINITLDHRCRIFQNLDGALDEVVLKFEMGHVRARNLAYDTLPVLIHGNGPTKLQLNYLGNYIPRFWTFETGCTVCDEGLRSLKGIGDEALPTVLVGVFIEQPTPFVSLFFQRLLRLHYPQKHMRLFIHNHEQHHKAQVEEFLAQHGSEYQSVKLVGPEVRMANADARNMGADLCRQDRSCTYYFSVDADVALTEPNSLRLLIQQNKNVIAPLMTRHGRLWSNFWGALSADGYYARSEDYVDIVQGRRVGVWNVPYISNIYLIKGSALRGELQSSDLFHHSKLDPDMAFCANIRQQDVFMFLTNRHTLGHLLSLDSYRTTHLHNDLWEVFSNPEDWKEKYIHQNYTKALAGKLVETPCPDVYWFPIFTEVACDELVEEMEHFGQWSLGNNKDNRIQGGYENVPTIDIHMNQIGFEREWHKFLLEYIAPMTEKLYPGYYTRAQFDLAFVVRYKPDEQPSLMPHHDASTFTINIALNRVGVDYEGGGCRFLRYNCSIRAPRKGWTLMHPGRLTHYHEGLPTTRGTRYIAVSFVDP	none of these recombinant proteins had detectable GGT activity	LH3 was the only one being able to generate GT activity	no LH activity can be found	did not generated GT activity	–	–	–	–
Mutation 2: human LH3 mutant, amino acids 25-520 normal, amino acids 521-738 missing (protein, listed as Homo sapiens) SDRPRGRDPVNPEKLLVITVATAETEGYLRFLRSAEFFNYTVRTLGLGEEWRGGDVARTVGGGQKVRWLKKEMEKYADREDMIIMFVDSYDVILAGSPTELLKKFVQSGSRLLFSAESFCWPEWGLAEQYPEVGTGKRFLNSGGFIGFATTIHQIVRQWKYKDDDDDQLFYTRLYLDPGLREKLSLNLDHKSRIFQNLNGALDEVVLKFDRNRVRIRNVAYDTLPIVVHGNGPTKLQLNYLGNYVPNGWTPEGGCGFCNQDRRTLPGGQPPPRVFLAVFVEQPTPFLPRFLQRLLLLDYPPDRVTLFLHNNEVFHEPHIADSWPQLQDHFSAVKLVGPEEALSPGEARDMAMDLCRQDPECEFYFSLDADAVLTNLQTLRILIEENRKVIAPMLSRHGKLWSNFWGALSPDEYYARSEDYVELVQRKRVGVWNVPYISQAYVIRGDTLRMELPQRDVFSGSDTDPDMAFCKSFRDKGIFLHLSNQHEFGRLLATSR	–	–	–	–	180000 Dpm/plate	23%	<300 Dpm/plate	<5%
Mutation 4: human LH3 mutant, amino acids 25-668 normal, amino acids 669-698 modified (protein, listed as Homo sapiens) SDRPRGRDPVNPEKLLVITVATAETEGYLRFLRSAEFFNYTVRTLGLGEEWRGGDVARTVGGGQKVRWLKKEMEKYADREDMIIMFVDSYDVILAGSPTELLKKFVQSGSRLLFSAESFCWPEWGLAEQYPEVGTGKRFLNSGGFIGFATTIHQIVRQWKYKDDDDDQLFYTRLYLDPGLREKLSLNLDHKSRIFQNLNGALDEVVLKFDRNRVRIRNVAYDTLPIVVHGNGPTKLQLNYLGNYVPNGWTPEGGCGFCNQDRRTLPGGQPPPRVFLAVFVEQPTPFLPRFLQRLLLLDYPPDRVTLFLHNNEVFHEPHIADSWPQLQDHFSAVKLVGPEEALSPGEARDMAMDLCRQDPECEFYFSLDADAVLTNLQTLRILIEENRKVIAPMLSRHGKLWSNFWGALSPDEYYARSEDYVELVQRKRVGVWNVPYISQAYVIRGDTLRMELPQRDVFSGSDTDPDMAFCKSFRDKGIFLHLSNQHEFGRLLATSRYDTEHLHPDLWQIFDNPVDWKEQYIHENYSRALEGEGIVEQPCPDVYWFPLLSEQMCDELVAEMEHYGQWSGGRHEDSRLAGGYENVPTVDIHMKQVGYEDQWLQLLRTYVGPMTESLFPGYHTKARAVMNFVVRYRPDEQPSLRPHHAHPPSPSTLPSTTRAWTMREVAAASCATTV	–	–	–	–	360000 Dpm/plate	47%	<300 Dpm/plate	<5%
LH2a: recombinant human lysyl hydroxylase isoform 2, alternatively spliced form a (protein, left off: small tags and cut ends, recombinant human lysyl hydroxylase isoform 2, alternatively spliced form a) ADSEKPSSIPTDKLLVITVATKESDGFHRFMQSAKYFNYTVKVLGQGEEWRGGDGINSIGGGQKVRLMKEVMEHYADQDDLVVMFTECFDVIFAGGPEEVLKKFQKANHKVVFAADGILWPDKRLADKYPVVHIGKRYLNSGGFIGYAPYVNRIVQQWNLQDNDDDQLFYTKVYIDPLKREAINITLDHKCKIFQTLNGAVDEVVLKFENGKARAKNTFYETLPVAINGNGPTKILLNYFGNYVPNSWTQDNGCTLCEFDTVDLSAVDVHPNVSIGVFIEQPTPFLPRFLDILLTLDYPKEALKLFIHNKEVYHEKDIKVFFDKAKHEIKTIKIVGPEENLSQAEARNMGMDFCRQDEKCDYYFSVDADVVLTNPRTLKILIEQNRKIIAPLVTRHGKLWSNFWGALSPDGYYARSEDYVDIVQGNRVGVWNVPYMANVYLIKGKTLRSEMNERNYFVRDKLDPDMALCRNAREMGVFMYISNRHEFGRLLSTANYNTSHYNNDLWQIFENPVDWKEKYINRDYSKIFTENIVEQPCPDVFWFPIFSEKACDELVEEMEHYGKWSGGKHHDSRISGGYENVPTDDIHMKQVDLENVWLDFIREFIAPVTLKVFAGYYTKGFALLNFVVKYSPERQRSLRPHHDASTFTINIALNNVGEDFQGGGCKFLRYNCSIESPRKGWSFMHPGRLTHLHEGLPVKNGTRYIAVSFIDP	none of these recombinant proteins had detectable GGT activity	LH3 was the only one being able to generate GT activity	no LH activity can be found	did not generated GT activity	–	–	–	–
Mutation 1: human LH3 mutant, amino acids 25-231 normal, amino acids 232-356 modified (frame shift) (protein, listed as Homo sapiens) SDRPRGRDPVNPEKLLVITVATAETEGYLRFLRSAEFFNYTVRTLGLGEEWRGGDVARTVGGGQKVRWLKKEMEKYADREDMIIMFVDSYDVILAGSPTELLKKFVQSGSRLLFSAESFCWPEWGLAEQYPEVGTGKRFLNSGGFIGFATTIHQIVRQWKYKDDDDDQLFYTRLYLDPGLREKLSLNLDHKSRIFQNLNGALDEVVLSLIGTVCVSGTWPTTRSPLWSMETVPLSCSSTTWETTSPMAGLLREAVASATRTGGHSRGGSLPPGCFWPCLWNSLLRFCPASCSGCYSWTIPPTGSPFSCTTTRSSMNPTSLTPGRSSRTTSQL	–	–	–	–	650 Dpm/plate	0.1%	<300 Dpm/plate	<5%
